Assay results from the supplement of paper PMC7877785.
± gives the uncertainty stated by the source.

Experiment: self-splicing fitness, log relative to wild type (ln ratio); higher = more splicing; Tetrahymena group I intron in knt gene, E. coli kanamycin selection, DiMSum; sequences stand for … in CUCUCU…GGAGGGAAAAGUUAUCAGGCAUGCACCUGGUAGCUAGUCUUUAAACCAAUAGAUUGCAUCGGUUUAAAAGGCAAGACCGUCAAAUUGCGGGAAAGGGGUCAACAGCCGUUCAGUACCAAGUCUCAGGGGAAACUUUGAGAUGGCCUUGCAAAGGGUAUGGUAAUAAGCUGACGGACAUGGUCCUAACCACGCAGCCAAGUCCUAAGUCAACAGAUCUUCUGUUGAUAUGGAUGCAGUUCACAGACUAAAUGUCGGUCGGGGAAGAUGUAUUCUUCUCAUAAGAUAUAGUCGGACCUCUCCUUAAUGGGAGCUAGCGGAUGAAGUGAUGCAACACUGGAGCCGCUGGGAACUAAUUUGUAUGCGAAAGUAUAUUGAUUAGUUUUGGAGUACUCGUGGUCG
Procedure, shortened: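 The eight P1ex-region nucleotides of an intron in the knt kanamycin-resistance gene on pET-22b(+) were all randomised and the library put into E. coli BL21(DE3). Six replicate transformations were grown overnight at 37°C or 30°C on LB agar with or without 25 μg/mL kanamycin, together with 100 μg/mL carbenicillin, 50 μM IPTG and 0.2% rhamnose. Colonies were pooled and amplicon-sequenced on an Illumina HiSeq 2500. Fitness from DiMSum is the error-weighted combination of wild-type-normalised replicate fold changes, kanamycin over none.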

| Sequence | self-splicing fitness (ln) (30 °C) | self-splicing fitness (ln) (37 °C) |
| --- | --- | --- |
| GAAGAGCAAUAUUACGCGUC | -2.98 ± 0.42 | -2.5 ± 0.48 |
| GAAGAGCAAUAUUACGGACA | -1.14 ± 0.24 | 0.342 ± 0.24 |
| GAAGAGCAAUAUUACGGCAC | -1.31 ± 0.12 | -0.934 ± 0.16 |
| GAAGAGCAAUAUUACGUAAG | -3.39 ± 0.21 | -1.5 ± 0.16 |
| GAAGAGCAAUAUUACGUACA | -3.17 ± 0.2 | -2.7 ± 0.18 |
| GAAGAGCAAUAUUACGUAGG | -3.14 ± 0.33 | -1.99 ± 0.19 |
| GAAGAGCAAUAUUACGUCUA | -1.86 ± 0.13 | -1.01 ± 0.13 |
| GAAGAGCAAUAUUACGUGAG | -2.97 ± 0.19 | -1.11 ± 0.22 |
| GAAGAGCAAUAUUACGUUUC | -2.8 ± 0.14 | -2.74 ± 0.22 |
| GAAUAGCAAUAUUACGAGAU | -3.86 ± 0.23 | -1.22 ± 0.14 |
| GAAUAGCAAUAUUACGAGCC | -1.48 ± 0.17 | 0.00455 ± 0.17 |
| GAAUAGCAAUAUUACGAGCU | -1.21 ± 0.081 | -0.335 ± 0.1 |
| GAAUAGCAAUAUUACGAUCU | 0.384 ± 0.078 | -0.286 ± 0.079 |
| GAAUAGCAAUAUUACGCAAC | -2.63 ± 0.21 | -1.77 ± 0.3 |
| GAAUAGCAAUAUUACGCCAA | -2.44 ± 0.23 | -1.39 ± 0.16 |
| GAAUAGCAAUAUUACGGAAC | -2.37 ± 0.16 | -0.0927 ± 0.15 |
| GAAUAGCAAUAUUACGGAAU | -2.69 ± 0.17 | -1.66 ± 0.2 |
| GAAUAGCAAUAUUACGGAUC | -0.118 ± 0.058 | -0.207 ± 0.073 |
| GAAUAGCAAUAUUACGGCAA | -0.403 ± 0.14 | -0.118 ± 0.14 |
| GAAUAGCAAUAUUACGGCAU | -0.386 ± 0.065 | -0.0278 ± 0.083 |
| GAAUAGCAAUAUUACGGUCA | -0.00851 ± 0.072 | -0.154 ± 0.077 |
| GAAUAGCAAUAUUACGGUGU | -3 ± 0.13 | -1.58 ± 0.14 |
| GAAUAGCAAUAUUACGUAGC | -3.4 ± 0.17 | -1.1 ± 0.12 |
| GAAUAGCAAUAUUACGUCAA | -2.1 ± 0.14 | -1.95 ± 0.13 |
| GAAUAGCAAUAUUACGUCAG | -3.69 ± 0.31 | -3.11 ± 0.4 |

| Sequence | self-splicing fitness (ln) (30 °C) | self-splicing fitness (ln) (37 °C) |
| --- | --- | --- |
| GAAUAGCAAUAUUACGUCUU | -0.449 ± 0.059 | 0.342 ± 0.074 |
| GAAUAGCAAUAUUACGUGUA | -1.82 ± 0.12 | -1.49 ± 0.13 |
| GACAAGCAAUAUUACGAAGU | -4.61 ± 0.27 | -2.18 ± 0.14 |
| GACAAGCAAUAUUACGACAA | -0.668 ± 0.11 | -0.951 ± 0.1 |
| GACAAGCAAUAUUACGACCG | -0.672 ± 0.21 | -0.326 ± 0.34 |
| GACAAGCAAUAUUACGACUU | -0.00142 ± 0.071 | 0.381 ± 0.088 |
| GACAAGCAAUAUUACGAUCA | 0.0763 ± 0.12 | -0.0166 ± 0.15 |
| GACAAGCAAUAUUACGCACA | -0.149 ± 0.086 | -0.296 ± 0.11 |
| GACAAGCAAUAUUACGCAGA | -3.04 ± 0.18 | -1.83 ± 0.14 |
| GACAAGCAAUAUUACGCAGG | -3 ± 0.13 | -1.71 ± 0.13 |
| GACAAGCAAUAUUACGCGAC | -1.52 ± 0.15 | -1.63 ± 0.19 |
| GACAAGCAAUAUUACGCGCC | -2.58 ± 0.18 | -1.08 ± 0.21 |
| GACAAGCAAUAUUACGCUAC | -3.62 ± 0.31 | -2.54 ± 0.23 |
| GACAAGCAAUAUUACGGAAA | -2.13 ± 0.2 | -2 ± 0.23 |
| GACAAGCAAUAUUACGGACC | -1.32 ± 0.1 | -0.785 ± 0.11 |
| GACAAGCAAUAUUACGGAUG | -2.92 ± 0.11 | -1.75 ± 0.12 |
| GACAAGCAAUAUUACGGAUU | -2.16 ± 0.076 | -0.656 ± 0.076 |
| GACAAGCAAUAUUACGGCGG | -3.27 ± 0.29 | -1.87 ± 0.18 |
| GACAAGCAAUAUUACGGUAC | -2.81 ± 0.13 | -2.64 ± 0.16 |
| GACAAGCAAUAUUACGGUAG | -1.84 ± 0.098 | -0.222 ± 0.092 |
| GACAAGCAAUAUUACGGUGC | -2.77 ± 0.21 | -1.63 ± 0.24 |
| GACAAGCAAUAUUACGUCAC | -2.9 ± 0.23 | -2.75 ± 0.29 |
| GACAAGCAAUAUUACGUCCA | -2.8 ± 0.14 | -1.42 ± 0.13 |
| GACAAGCAAUAUUACGUCCG | -1.98 ± 0.27 | -2.47 ± 0.28 |
| GACAAGCAAUAUUACGUCGU | -3.44 ± 0.14 | -2.24 ± 0.11 |

| Sequence | self-splicing fitness (ln) (30 °C) | self-splicing fitness (ln) (37 °C) |
| --- | --- | --- |
| GACAAGCAAUAUUACGUGGU | -3.63 ± 0.11 | -2.76 ± 0.12 |
| GACAAGCAAUAUUACGUUUG | -2.88 ± 0.094 | -2.64 ± 0.13 |
| GACCAGCAAUAUUACGAAAA | -2.05 ± 0.12 | -0.391 ± 0.11 |
| GACCAGCAAUAUUACGAAAC | -1.43 ± 0.099 | 0.296 ± 0.11 |
| GACCAGCAAUAUUACGAACA | -0.472 ± 0.091 | 0.313 ± 0.081 |
| GACCAGCAAUAUUACGAAUA | -1.74 ± 0.11 | -0.549 ± 0.11 |
| GACCAGCAAUAUUACGACCC | -0.132 ± 0.14 | 0.75 ± 0.18 |
| GACCAGCAAUAUUACGACGU | -0.417 ± 0.064 | 0.321 ± 0.078 |
| GACCAGCAAUAUUACGAGCA | -1.07 ± 0.084 | -0.284 ± 0.096 |
| GACCAGCAAUAUUACGAGCG | -2.08 ± 0.067 | -0.434 ± 0.077 |
| GACCAGCAAUAUUACGAGGU | -2.95 ± 0.12 | -3.04 ± 0.2 |
| GACCAGCAAUAUUACGAGUU | -3.35 ± 0.1 | -1.5 ± 0.096 |
| GACCAGCAAUAUUACGCACG | -0.677 ± 0.067 | -0.895 ± 0.095 |
| GACCAGCAAUAUUACGCCGC | -3.75 ± 0.32 |  |
| GACCAGCAAUAUUACGGAGU | -0.646 ± 0.077 | 0.000468 ± 0.092 |
| GACCAGCAAUAUUACGGCCU | -2.51 ± 0.13 | -0.969 ± 0.11 |
| GACCAGCAAUAUUACGGGAG | -0.677 ± 0.053 | -0.0889 ± 0.065 |
| GACCAGCAAUAUUACGUACU | -0.709 ± 0.069 | 0.123 ± 0.082 |
| GACCAGCAAUAUUACGUAGA | 0.284 ± 0.056 | 0.219 ± 0.074 |
| GACCAGCAAUAUUACGUCCA | -1.75 ± 0.095 | -0.749 ± 0.095 |
| GACCAGCAAUAUUACGUCUC | -0.562 ± 0.044 | -0.159 ± 0.064 |
| GACCAGCAAUAUUACGUGCG | -0.787 ± 0.082 | -0.644 ± 0.097 |
| GACCAGCAAUAUUACGUUAA | -1.13 ± 0.093 | -0.35 ± 0.1 |
| GACGAGCAAUAUUACGAAUG | -3.03 ± 0.2 | -2.31 ± 0.22 |
| GACGAGCAAUAUUACGACAU | -2.931 ± 0.021 | -1.99 ± 0.036 |

| Sequence | self-splicing fitness (ln) (30 °C) | self-splicing fitness (ln) (37 °C) |
| --- | --- | --- |
| GACGAGCAAUAUUACGAGAC | -3.99 ± 0.28 | -1.95 ± 0.28 |
| GACGAGCAAUAUUACGAGCU | -3.27 ± 0.31 |  |
| GACGAGCAAUAUUACGAGUU | -3.06 ± 0.34 |  |
| GACGAGCAAUAUUACGAUUC | -1.39 ± 0.11 | -1.47 ± 0.17 |
| GACGAGCAAUAUUACGCAAU |  | -2.74 ± 0.31 |
| GACGAGCAAUAUUACGCAGG | -2.39 ± 0.2 | -1.6 ± 0.26 |
| GACGAGCAAUAUUACGCAGU | -3.48 ± 0.28 | -2.21 ± 0.23 |
| GACGAGCAAUAUUACGCCAG |  | -2.63 ± 0.28 |
| GACGAGCAAUAUUACGCCUC | -3.23 ± 0.37 | -1.86 ± 0.38 |
| GACGAGCAAUAUUACGCGGG | -3.48 ± 0.47 | -2.61 ± 0.36 |
| GACGAGCAAUAUUACGCUCA | -1.28 ± 0.15 | -0.493 ± 0.13 |
| GACGAGCAAUAUUACGGAAG | -2.39 ± 0.23 | -2.5 ± 0.31 |
| GACGAGCAAUAUUACGGACC | -1.34 ± 0.34 | -0.304 ± 0.33 |
| GACGAGCAAUAUUACGGCGA | -2.12 ± 0.13 | -1.65 ± 0.13 |
| GACGAGCAAUAUUACGGGCC | -2.12 ± 0.14 | -1.63 ± 0.21 |
| GACGAGCAAUAUUACGGGGG | -3.65 ± 0.22 | -2.98 ± 0.3 |
| GACGAGCAAUAUUACGGGGU |  | -2.59 ± 0.25 |
| GACGAGCAAUAUUACGGUAU | -3.43 ± 0.19 | -2.08 ± 0.26 |
| GACGAGCAAUAUUACGUAAA | -2.58 ± 0.18 |  |
| GACGAGCAAUAUUACGUACC | -3.61 ± 0.28 | -1.75 ± 0.21 |
| GACGAGCAAUAUUACGUAGC | -4.54 ± 0.41 | -2.33 ± 0.25 |
| GACGAGCAAUAUUACGUAUA | -3.23 ± 0.29 | -0.524 ± 0.2 |
